Measurements from PMC2467505.

What was measured:
Experiment in all cases: purified protein
[1] = substrate: CC(=O)C=O; conditions: reduction, 70°C, 0.1 M sodium phosphate pH 7.0, 0.35 mM NADPH
[2] = substrate: CC(=O)CCC(C)=O; conditions: reduction, 70°C, 0.1 M sodium phosphate pH 7.0, 0.35 mM NADPH
[3] = substrate: C[C@H](O)CC[C@H](C)O; conditions: oxidation, 70°C, 50 mM glycine pH 10.5, 0.35 mM NADP+
[4] = substrate: CCCC(C)O; conditions: oxidation, 70°C, 50 mM glycine pH 10.5, 0.35 mM NADP+

B1: AdhA (Pyrococcus furiosus; INS1A) (protein)
chain: MAKVAVITGASRGIGEAIAKALAEDGYSLALGARSVDRLEKIAKELSEKHGVEVFYDYLDVSKPESVEEFARKTLAHFGDVDVVVANAGLGYFGRLEELTEEQFHEMIEVNLLGVWRTIKAFLNSLKRTGGVAIVVTSDVSARLLPYGGGYVATKWAARALVRTFQIENPDVRFFELRPGAVDTYFGGSKAGKPKEQGYLKPEEVAEAVKYLLRLPKDVRVEELMLRSIYQKPEY
Work on B1 yielded a Km [1] of 1.2 ± 0.03 mM, a Vmax [1] of 10.4 µmol/min/mg and a kcat/Km [1] of 3800 M⁻¹ s⁻¹. The Km [2] was 56.4 ± 0.6 mM, the Vmax [2] was 1.9 µmol/min/mg and the kcat/Km [2] was 10 M⁻¹ s⁻¹. The Km [3] was 5.4 ± 0.3 mM, the Vmax [3] was 12.8 µmol/min/mg and the kcat/Km [3] was 1000 M⁻¹ s⁻¹. It also gave a Km [4] of 30.3 ± 0.4 mM, a Vmax [4] of 13.1 µmol/min/mg and a kcat/Km [4] of 100 M⁻¹ s⁻¹.
